According to the nanobody polyreactivity screen of Harvey et al. (2022):

Assay: yeast display, Sf9 membrane polyspecificity reagent, FACS + sequencing; frameworks hold sequencing errors
How it was run: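 Synthetic nanobody libraries on Saccharomyces cerevisiae BJ5465 were galactose-induced for 36–48 hours, stained 1 hour at 4 °C with 10% biotinylated, detergent-solubilized Sf9 membrane reagent and enriched on streptavidin microbeads. FACS then separated cells into low and high (top ~1%) gates by anti-HA (expression) and streptavidin (reagent binding) fluorescence. Genes were colony-PCR amplified, MiSeq 2 × 250 sequenced and CDR-length filtered. A clone's polyreactivity label is that of its gate of origin.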

Sequence	polyreactivity (PSR sort gate)
QVQLVESGGGLVQAGGSLRLSCAASGIIFEPNAMGWYRQAPGKERELVAAIDSGGITYYADSVKGRFTISRDNAKNTVYLEMNSLKPEDTAVYYCAKRAYTRQYWYGYGYWGQGTQVTVSS	high polyreactivity
QVQLVESGGGLVQAGGSLRLSCAASGIIFFSNTMVGYRQAPGKDREFVAAITWSTGNTYYADSVKGRFTISRDNAKNTVYLQMNSLKTEDTAVYYCYAEYLVITLYGGVEFDYWGQGTQVTVSS	low polyreactivity
QVQLVESGGGLVQAGGSLRLSCAASGIIFFSYAMGWYRQAPGKERELVAAISGTGGNTYYADSVKGRFTISRDNAKNTVYLQMNSLKPEDTAVYYCAADQEWYYYFDSFAYYILGYWGQGTQVTVSS	high polyreactivity
QVQLVESGGGLVQAGGSLRLSCAASGIIFFWNAMGWYRQAPGKERELVAAISSGGSTYADSVKGRFTISRDNAKNTVYLQMNSLKPEDTAVYYCAARFYHGYRPYSAIYGYGYWGQGTQVTVSS	low polyreactivity
QVQLVESGGGLVQAGGSLRLSCAASGIIFFYYGMGWYIQAPGKERELVARISSGGSTNYADSVKGRFTISRDNAKITVYLQMNSLKQEDTAVYYCAARISTRYGYWGQGTQVTVSS	low polyreactivity
QVQLVESGGGLVQAGGSLRLSCAASGIIFFYYVMGWYRQAPGKERELVAAISSDGSSTYYADSVKGRFTISRDNAKNTVNLQMNSQKPEDTAVYYCAAELILYPYDFNFWGQGTQVTVSS	high polyreactivity
QVQLVESGGGLVQAGGSLRLSCAASGIIFGDYAMGWYRQAPGKEMELVAAITWSGGSTYYADSVKGRFTISRDNAKNTVYLQMNSLKPEDTAFYYCNADDDGRVSSTIVEYWGQGTQVTVSS	low polyreactivity
QVQLVESGGGLVQAGGSLRLSCAASGIIFGFNTMGWYRQAPGKERELVAVITWSGGSTYYADSVKGRFTISRVFAKNTVYLQMNCLNPDDTAVYYCATVRAVEYNYWGQGTQVTVSS	low polyreactivity
QVQLVESGGGLVQAGGSLRLSCAASGIIFGFYAMGWYRQAPGKERELVAAITIDGSTYYADSVKGRFTISRDNAKTTVYLQMNILKPEDTAVYYCGAQYLNVYYWEDYLGQGTQVTVSS	low polyreactivity
QVQLVESGGGLVQAGGSLRLSCAASGIIFGIYAMGWYRQAPGKEREFVAAISWSDGSTRYADSVKGRFTISRDNAKNTVYLQMNCLKPEDTAVYYCNTDIGPLDFGEYSYPDDYWGQGTQVTVSS	low polyreactivity
QVQLVESGGGLVQAGGSLRLSCAASGIIFGIYDMGWYRQAPGKERELVAAIRRSGGSTYYADSVKGRFTISRDNAKNTVYLQMNSLKPEDTAVYYCAATRHSRVRGGDYWGQGTQVTVSS	low polyreactivity
QVQLVESGGGLVQAGGSLRLSCAASGIIFGLYTMGWYRQAPGKERELVAAISDSGGRTYYADSVKGRFTISRDNAKNTVYLQMNSLKPEDTAVYYCAAEFWYVLEYNYWGQGTQVTVSS	high polyreactivity
QVQLVESGGGLVQAGGSLRLSCAASGIIFGNYAMGWYRQAPGKERELVAAITNGSSTNYADSVKGRFTISRDNAKNTVYLQMNSLKPEDTAVYYCARDGIGADGYDYWGQGTQVTVSS	low polyreactivity
QVQLVESGGGLVQAGGSLRLSCAASGIIFGNYAMGWYRQEPGKERELVATITWRGGSTYYADSVKGRFTISRDNAKNTVYLQMISLKPEDTAVYYCARPYASYRSFYYYGYWGQGTQVTVSS	high polyreactivity
QVQLVESGGGLVQAGGSLRLSCAASGIIFGRYAMGWYRQAPGKEREFVAAIRSRGGSTYYADSVKGRFTISRDNAKNTVYLQMNSLKPEDTAVYYCNAGHIYAGYRREYDYWGQGTQVTVSS	high polyreactivity
QVQLVESGGGLVQAGGSLRLSCAASGIIFGTNAMGWYRQAPGKERELVASITSDGSTYYADSVKGRFTISRDNAKNTVYLQMNSLKPEDTAVYYCAADHYWADGVYLYDTYEYGYWGQGTQVTVSS	low polyreactivity

Sequence	polyreactivity (PSR sort gate)
QVQLVESGGGLVQAGGSLRLSCAASGIIFGTYAMGWYRQAPGKERELVAAISSGGRTYYADSVKGRFTISRDNAKNTVYLQMNSLKPEDTAVYYCNRPPWSRGSNYWGQGTQVTVSS	high polyreactivity
QVQLVESGGGLVQAGGSLRLSCAASGIIFGVYAMGWYRQAPGKERELVASIRYSSVRTYYADSVKGRFTISRDNAKNTVYLQMNSLKPEDTAVYYCAKYYVWPRYGYWGQGTQVTVSS	high polyreactivity
QVQLVESGGGLVQAGGSLRLSCAASGIIFGVYAMGWYRQAPGQERELVAAIDGNGSSTYYADSVKGRFTISRDNAKNTVYLQMNSLKPEDTAVYYCAAGYWSYLYYWYDFDYWGQGTQVTVSS	low polyreactivity
QVQLVESGGGLVQAGGSLRLSCAASGIIFGWYAMGWYRQAPGKERELVADISSDDSTYYADSVKGRFTISRDNAKNTVYLQMNSLKPEDTAVYYCAADTSYGSYWSLYYYNYYWGQGTQVTVSS	high polyreactivity
QVQLVESGGGLVQAGGSLRLSCAASGIIFGYNVMGWYRQAPGKERELVAAISGSGSSTYYADSVKGRFTISRDNAKITVYLQMNSLKPEDTAVYYCAARRYSTKRWRMYYWGQGTQVTVSS	high polyreactivity
QVQLVESGGGLVQAGGSLRLSCAASGIIFHRYAMGWYRQAPGKERELVAAISWNGGSTYYADSVKGRFTISRDNAKNTVYLQMNSLKPEDTAVYYCAARKLYSNISGYWGQGTLVTVSS	high polyreactivity
QVQLVESGGGLVQAGGSLRLSCAASGIIFHVYAMGWYRQAPGKERELVAAISDDGSTNYADSVKGRFTISRDNAKNTVYLQMNSLKPEDTAVYYCAKESWGRLYYRYDYWGQGTQVTVSA	low polyreactivity
QVQLVESGGGLVQAGGSLRLSCAASGIIFHYYAMGWSRPEPGKERELVAAITSSGDRTYYADSVKGRFTISRDTAKNTVYLQMNSLKPEDTAVYYCAKDVWRWFGYWGQGTQVTVSS	high polyreactivity
QVQLVESGGGLVQAGGSLRLSCAASGIIFHYYAMGWYRQAPGKEREFVASISFSGASTYYADSVKGRFTISRDNAKNTVYLQMNSLKPEDTAVYYCAARYLYGPKYYYCGQGTQVTVSS	high polyreactivity
QVQLVESGGGLVQAGGSLRLSCAASGIIFIFYDMGWSRQAPGKERELVATITSGTNTYADSVKGRFTISRDNAKNTVYLQMNSLKPEDTAVYSCAAGFSPASQLDYWGQGTQVTVSS	low polyreactivity
QVQLVESGGGLVQAGGSLRLSCAASGIIFIGNAMGWYRQAPGKERELVAAISRRGGRTYYADSVKGRFTISRDNAKNTVYLQMNSLKPEDTAVYYCNAEITVNDDDYWGQGTQVTVSS	low polyreactivity
QVQLVESGGGLVQAGGSLRLSCAASGIIFIGYAMGWYSQAPGKERELVAAISTRGSTTNYADSVKGRFTISRDNAKNTVYLQMNSLKPEDTAVYYCAARKYPSYRYPTGDYWGQGTQVTVSS	high polyreactivity
QVQLVESGGGLVQAGGSLRLSCAASGIIFITNAMGWYRQAPGKERDLVAVISFSGGGTYADSVKGRFTISRDNAKNTVYLQMNSLTPEDTAVYYCAKYWLSALTLEDDYWGQGTQVTVSS	low polyreactivity
QVQLVESGGGLVQAGGSLRLSCAASGIIFIVNAMGWYRQAPGKERELVAAISNGGSTNYADSVKGRFTISRDNAKNTVYLQMNSLKPEDTAVYYCADDYSTWLRAYDYWGQGTQVTVSS	low polyreactivity
QVQLVESGGGLVQAGGSLRLSCAASGIIFKGYDMGWYRQAPGKERELVAAISSGSTNYADSVKGRFTISRDNAKNTVYLQMNSLKPEDTAVYYCAAYNDTVPSAAHIYESWGQGTQVTVSS	low polyreactivity
QVQLVESGGGLVQAGGSLRLSCAASGIIFKRYAMGWYRQAPGKERELVATITRDGRTSYADSVKGRFTISRDNAKNTVYLQMNSLKPEDTAVYYCNKRGTYAPPTPGNLFDYWGQGTQVTVSS	low polyreactivity
